Laboratory results taken from paper PMC2877795, “Laminin chain assembly is regulated by specific coiled-coil interactions” (Journal of Structural Biology, 2010).

T1: recombinant mouse laminin γ2 chain C-terminal coiled-coil fragment (949–1191) (mouse, UniProt Q61092 949-1191)
T1 construct: two residues (GlySer) left from the protease recognition site after thrombin cleavage; laminin γ2 chain, mouse, C-terminal coiled-coil fragment, residues 949-1191 of the native chain (243 residues); source: E. coli JM109(DE3), purified (Ni2+-Sepharose, denaturing, 8 M urea), 6xHis tag removed by thrombin; not shown: 6xHis, N-terminal, cleaved; pPEP-T leader (short C-terminal fragment of the …)
T1 sequence: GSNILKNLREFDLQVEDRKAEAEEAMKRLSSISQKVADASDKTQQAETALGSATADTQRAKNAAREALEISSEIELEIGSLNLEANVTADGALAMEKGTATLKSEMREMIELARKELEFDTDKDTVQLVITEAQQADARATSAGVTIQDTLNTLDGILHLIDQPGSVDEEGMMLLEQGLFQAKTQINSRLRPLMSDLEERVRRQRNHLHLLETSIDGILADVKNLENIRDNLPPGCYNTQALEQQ

T2: β1γ3 complex of the recombinant mouse laminin coiled-coil fragments (mouse, UniProt P02469 1561-1786; Q9R0B6 1344-1581)
T2 construct: two residues (GlySer) left from the protease recognition site after thrombin cleavage; laminin β1 chain, mouse, residues 1561-1786 of the native chain; as m6; laminin γ3 chain, mouse, residues 1344-1581 of the native chain; as m11; in the αβγ tests all three chains were mixed, the βγ complex was not isolated beforehand; source: mixture of the purified E. coli fragments; not shown: 6xHis, …
T2 sequence 1: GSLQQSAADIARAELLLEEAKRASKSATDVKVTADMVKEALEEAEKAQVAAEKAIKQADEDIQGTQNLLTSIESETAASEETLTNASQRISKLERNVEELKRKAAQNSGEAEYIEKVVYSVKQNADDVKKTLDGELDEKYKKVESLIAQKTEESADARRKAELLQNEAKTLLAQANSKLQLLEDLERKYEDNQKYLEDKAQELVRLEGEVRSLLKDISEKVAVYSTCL
T2 sequence 2: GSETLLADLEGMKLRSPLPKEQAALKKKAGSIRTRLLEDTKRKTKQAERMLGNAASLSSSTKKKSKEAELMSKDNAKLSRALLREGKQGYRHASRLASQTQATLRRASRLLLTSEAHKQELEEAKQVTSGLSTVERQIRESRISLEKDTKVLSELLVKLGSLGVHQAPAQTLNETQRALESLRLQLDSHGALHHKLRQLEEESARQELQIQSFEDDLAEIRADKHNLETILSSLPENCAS

T3: β2γ1 complex of the recombinant mouse laminin coiled-coil fragments (mouse, UniProt Q61292 1575-1799; P02468 1362-1607)
T3 construct: two residues (GlySer) left from the protease recognition site after thrombin cleavage; laminin β2 chain, mouse, residues 1575-1799 of the native chain; as m7; laminin γ1 chain, mouse, residues 1362-1607 of the native chain; as m9; in the αβγ tests all three chains were mixed, the βγ complex was not isolated beforehand; source: mixture of the purified E. coli fragments; not shown: 6xHis, …
T3 sequence 1: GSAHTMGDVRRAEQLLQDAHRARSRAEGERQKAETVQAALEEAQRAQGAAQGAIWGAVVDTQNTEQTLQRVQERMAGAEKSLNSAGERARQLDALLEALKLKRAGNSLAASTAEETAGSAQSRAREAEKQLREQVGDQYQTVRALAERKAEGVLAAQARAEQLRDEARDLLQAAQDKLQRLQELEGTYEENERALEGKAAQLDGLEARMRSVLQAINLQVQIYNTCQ
T3 sequence 2: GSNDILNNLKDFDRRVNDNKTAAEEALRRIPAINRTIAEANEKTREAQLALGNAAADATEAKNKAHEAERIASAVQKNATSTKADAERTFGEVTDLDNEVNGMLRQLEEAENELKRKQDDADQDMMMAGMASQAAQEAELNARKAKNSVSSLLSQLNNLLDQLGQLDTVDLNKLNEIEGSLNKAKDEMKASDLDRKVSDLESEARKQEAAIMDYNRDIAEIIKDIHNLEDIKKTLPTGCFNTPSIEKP

T4: β1γ1 complex of the recombinant mouse laminin coiled-coil fragments (mouse, UniProt P02469 1561-1786; P02468 1362-1607)
T4 construct: two residues (GlySer) left from the protease recognition site after thrombin cleavage; laminin β1 chain, mouse, residues 1561-1786 of the native chain; as m6; laminin γ1 chain, mouse, residues 1362-1607 of the native chain; as m9; heterodimer by AUC; in the αβγ tests all three chains were mixed, the βγ complex was not isolated beforehand; source: mixture of the purified E. coli fragments; not …
T4 sequence 1: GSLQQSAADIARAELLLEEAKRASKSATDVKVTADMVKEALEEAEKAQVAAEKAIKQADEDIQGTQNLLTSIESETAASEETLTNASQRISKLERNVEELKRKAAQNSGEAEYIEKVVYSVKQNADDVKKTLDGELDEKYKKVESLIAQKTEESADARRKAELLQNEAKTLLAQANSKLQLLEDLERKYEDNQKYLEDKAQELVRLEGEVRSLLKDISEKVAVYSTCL
T4 sequence 2: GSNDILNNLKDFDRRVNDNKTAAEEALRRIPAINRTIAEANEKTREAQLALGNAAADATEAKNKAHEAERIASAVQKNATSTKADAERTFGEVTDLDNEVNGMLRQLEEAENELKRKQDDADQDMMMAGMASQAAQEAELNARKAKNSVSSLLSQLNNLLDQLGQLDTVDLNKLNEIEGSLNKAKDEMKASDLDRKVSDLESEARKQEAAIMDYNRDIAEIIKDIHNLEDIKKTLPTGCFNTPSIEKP

T5: recombinant mouse laminin γ1 chain C-terminal coiled-coil fragment (1362–1607) (mouse, UniProt P02468 1362-1607)
T5 construct: two residues (GlySer) left from the protease recognition site after thrombin cleavage; laminin γ1 chain, mouse, C-terminal coiled-coil fragment, residues 1362-1607 of the native chain (246 residues); source: E. coli JM109(DE3), purified (Ni2+-Sepharose, denaturing, 8 M urea), 6xHis tag removed by thrombin; not shown: 6xHis, N-terminal, cleaved; pPEP-T leader (short C-terminal fragment of the …)
T5 sequence: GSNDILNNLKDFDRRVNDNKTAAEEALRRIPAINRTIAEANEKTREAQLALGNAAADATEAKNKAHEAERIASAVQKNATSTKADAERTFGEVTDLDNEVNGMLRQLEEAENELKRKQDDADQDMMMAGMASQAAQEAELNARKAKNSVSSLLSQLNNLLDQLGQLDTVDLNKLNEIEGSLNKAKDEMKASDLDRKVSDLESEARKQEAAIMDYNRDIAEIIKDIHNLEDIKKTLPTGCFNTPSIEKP

T6: recombinant mouse laminin γ3 chain C-terminal coiled-coil fragment (1344–1581) (mouse, UniProt Q9R0B6 1344-1581)
T6 construct: two residues (GlySer) left from the protease recognition site after thrombin cleavage; laminin γ3 chain, mouse, C-terminal coiled-coil fragment, residues 1344-1581 of the native chain (238 residues); source: E. coli JM109(DE3), purified (Ni2+-Sepharose, denaturing, 8 M urea), 6xHis tag removed by thrombin; not shown: 6xHis, N-terminal, cleaved
T6 sequence: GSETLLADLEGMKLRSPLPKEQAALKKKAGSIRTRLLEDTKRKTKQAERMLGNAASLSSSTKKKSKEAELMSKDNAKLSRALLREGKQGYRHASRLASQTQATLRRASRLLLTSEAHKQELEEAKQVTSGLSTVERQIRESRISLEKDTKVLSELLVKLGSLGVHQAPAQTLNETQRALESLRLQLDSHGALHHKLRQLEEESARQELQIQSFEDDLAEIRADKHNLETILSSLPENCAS

B1: recombinant mouse laminin β3 chain C-terminal coiled-coil fragment (945–1168) (domain or fragment)
chain: GSLSQTKQDIARARRLQAEAEQARSRAHAVEGQVDDVVGNLRQGTVALQEAQDTMQGTGRSLRLIQERVGEVQQVLVPAERLVKGMKEQMSGFWARMKELRRQAQEEQAQAMQARQLAEGASQQAMNAQEGFKRLKQKYTELKDRLGQSPVLGEQGNRILSIKMEAEELFGETMEMMDKMKDMESELLRGSQAIMLRSADLSGLEKRVEQIRSYINGRVLYYATCK
notes: two residues (GlySer) left from the protease recognition site after thrombin cleavage; laminin β3 chain, mouse, C-terminal coiled-coil fragment, residues 945-1168 of the native chain (224 residues); source: E. coli JM109(DE3), purified (Ni2+-Sepharose, denaturing, 8 M urea), 6xHis tag removed by thrombin; not shown: 6xHis, N-terminal, cleaved
B2: recombinant mouse laminin α2 chain C-terminal coiled-coil fragment (1924–2145) (domain or fragment)
chain: GSYSNIKDYIDEAEKVAREAKELAQGATKLATSPQGLLKEDAKGSLQKSFRILNEAKKLANDVKGNHNDLNDLKTRLETADLRNSGLLGALNDTMDKLSAITNDTAAKLQAVKEKAREANDTAKAVLAQVKDLHQNLDGLKQNYNKLADSVAKTNAVVKDPSKNKIIADAGTSVRNLEQEADRLIDKLKPIKELEDNLKKNISEIKELINQARKQANSIKVSVS
notes: two residues (GlySer) left from the protease recognition site after thrombin cleavage; laminin α2 chain, mouse, C-terminal coiled-coil fragment, residues 1924-2145 of the native chain (222 residues); source: E. coli JM109(DE3), purified (Ni2+-Sepharose, denaturing, 8 M urea), 6xHis tag removed by thrombin; not shown: 6xHis, N-terminal, cleaved; pPEP-T leader (short C-terminal fragment of the …)
B3: recombinant mouse laminin β1 chain C-terminal coiled-coil fragment (1561–1786) (domain or fragment)
chain: GSLQQSAADIARAELLLEEAKRASKSATDVKVTADMVKEALEEAEKAQVAAEKAIKQADEDIQGTQNLLTSIESETAASEETLTNASQRISKLERNVEELKRKAAQNSGEAEYIEKVVYSVKQNADDVKKTLDGELDEKYKKVESLIAQKTEESADARRKAELLQNEAKTLLAQANSKLQLLEDLERKYEDNQKYLEDKAQELVRLEGEVRSLLKDISEKVAVYSTCL
notes: two residues (GlySer) left from the protease recognition site after thrombin cleavage; laminin β1 chain, mouse, C-terminal coiled-coil fragment, residues 1561-1786 of the native chain (226 residues); source: E. coli JM109(DE3), purified (Ni2+-Sepharose, denaturing, 8 M urea), 6xHis tag removed by thrombin; not shown: 6xHis, N-terminal, cleaved
B4: recombinant mouse laminin α1 chain C-terminal coiled-coil fragment (1911–2125) (domain or fragment)
chain: GSHVHSNIQTLTEEAEMLAADAHKTANKTDLISESLASRGKAVLQRSSRFLKESVSTRRKQQGITMKLDELKNLTSQFQESMDNIMKQANDSLAMLRESPGGMREKGRKARELAAAANESAVKTLEDVLALSLRVFNTSEDLSRVNATVQETNDLLHNSTMTTLLAGRKMKDMEMQANLLLDRLKPLKTLEENLSRNLSEIKLLISRARKQVASIKV
notes: two residues (GlySer) left from the protease recognition site after thrombin cleavage; laminin α1 chain, mouse, C-terminal coiled-coil fragment, residues 1911-2125 of the native chain (215 residues); source: E. coli JM109(DE3), purified (Ni2+-Sepharose, denaturing, 8 M urea), 6xHis tag removed by thrombin; not shown: 6xHis, N-terminal, cleaved; pPEP-T leader (short C-terminal fragment of the …)

Key:
Details in all cases: both partners purified
[1] = molecular target: T1, recombinant mouse laminin γ2 chain …; test: native gel or EMSA; mixtures of one β and one γ chain fragment; 10% non-denaturing PAGE (acid gels for basic complexes); mixtures reduced, heated to 70 °C for 5 min and cooled; run overnight at 50 V; Coomassie; bands confirmed by in-gel trypsin digestion and mass spectrometry
[2] = molecular target: T2, β1γ3 complex of the recombinant mouse …; test: native gel or EMSA; mixtures of one α, one β and one γ chain fragment; 10% non-denaturing PAGE (acid gels for basic complexes); mixtures reduced, heated to 70 °C for 5 min and cooled; run overnight at 50 V, room temperature, no cooling; Coomassie; bands confirmed by in-gel trypsin digestion and mass spectrometry
[3] = molecular target: T3, β2γ1 complex of the recombinant mouse …; test: as above
[4] = molecular target: T4, β1γ1 complex of the recombinant mouse …; test: as above
[5] = molecular target: T5, recombinant mouse laminin γ1 chain …; test: native gel or EMSA; mixtures of one β and one γ chain fragment; 10% non-denaturing PAGE (acid gels for basic complexes); mixtures reduced, heated to 70 °C for 5 min and cooled; run overnight at 50 V; Coomassie; bands confirmed by in-gel trypsin digestion and mass spectrometry
[6] = molecular target: T6, recombinant mouse laminin γ3 chain …; test: as above

Binder	binding result [1]	binding result [2]	binding result [3]	binding result [4]	binding result [5]	binding result [6]
B1	binds	–	–	–	–	–
B2	–	binds	binds	binds	–	–
B3	binds	–	–	–	binds	binds
B4	–	–	binds	binds	–	–
